Experimental data reported in patent publication US20170145086A1 (VISTERRA, published 2017).

T1: HA-GCN4 hAPRIL (amino acid residues 105-250) (human, UniProt O75888 105-250)
T1 construct: Bought (R&D Systems); also called HA-tagged GCN4 human APRIL; HA-GCN4-huAPRIL; not shown: N-terminal HA tag; GCN4 isoleucine zipper oligomerization domain
T1 sequence: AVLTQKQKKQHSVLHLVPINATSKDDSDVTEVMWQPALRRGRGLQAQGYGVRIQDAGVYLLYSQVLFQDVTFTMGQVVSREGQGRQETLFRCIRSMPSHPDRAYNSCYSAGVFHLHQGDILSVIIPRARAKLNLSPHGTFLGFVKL

T2: human FasL (TNFSF6, Adipogen) (human, UniProt P48023 103-281, limits assumed)
T2 sequence (looked up): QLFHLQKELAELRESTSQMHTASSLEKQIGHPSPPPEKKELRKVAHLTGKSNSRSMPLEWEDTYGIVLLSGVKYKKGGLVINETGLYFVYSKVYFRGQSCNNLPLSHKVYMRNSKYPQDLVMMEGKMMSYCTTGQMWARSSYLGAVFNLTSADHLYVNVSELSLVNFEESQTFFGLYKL

T3: human RANKL (TNFSF11; Adipogen) (human, UniProt O14788 152-317, limits assumed)
T3 sequence (looked up): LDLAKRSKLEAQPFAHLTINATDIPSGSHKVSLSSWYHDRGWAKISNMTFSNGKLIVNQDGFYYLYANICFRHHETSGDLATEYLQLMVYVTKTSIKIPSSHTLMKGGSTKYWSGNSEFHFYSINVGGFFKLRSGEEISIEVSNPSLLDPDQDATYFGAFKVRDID


What was measured:
[1] = target: T1, HA-GCN4 hAPRIL (amino acid residues …); assay: blocking ELISA, 4-parameter fit; blocked: human APRIL binding to human TACI-Fc
Description: (§1) FIGS. 19A-19B depict the antibody inhibition of APRIL binding to TNFSF receptors TACI (FIG. 19A) and BCMA (FIG. 19B). Assay is based on blocking ELISA using recombinant human APRIL (R&D Systems) and Human TACI-Fc. Inhibition was analyzed by non-linear regression using a four parameter fit.
(§2) Recombinant TACI-Fc or BCMA-Fc was coated on 96 well plates in 0.1 M carbonate-bicarbonate buffer (pH 9.6), overnight at 4° C. Plates were washed three times with 1×PBST (PBS+0.025% Tween 20) followed by blocking with 1% BSA in 1×PBS, 37° C. for 1 hour. All subsequent wash steps were carried out with 1×PBST. To assess antibody blocking, either 15 ng/mL or 50 ng/mL HA-GCN4-huAPRIL was preincubated with varying antibody concentrations ranging from 0.03-30 μg/mL in binding buffer comprised of 1% BSA and 0.025% Tween-20 in 1×PBS. Preincubation was carried out at 30° C. for 1 hour with mixing. Antibody-APRIL premix with 50 ng/mL APRIL or 15 ng/mL APRIL was then added to TACI-Fc coated or BCMA-Fc coated plates, respectively, and incubated for an additional hour at 30° C. HA-tagged APRIL binding to either receptor was quantified using a goat polyclonal anti-HA tag-HRP antibody (Abcam) added at a 1:10000 dilution followed by colorimetric development using 100 μl/well of freshly prepared TMB substrate (KPL) carried out for up to 30 minutes at room temperature before quenching enzymatic reaction by the addition of 1N sulfuric acid. ELISA signal was quantified by absorbance at 450 nm. ELISA data was analyzed by non-linear regression. IC₅₀ values were calculated based on a 4 parameter fit of antibody titration curves. […] Non-blocking antibodies Aprly-1 or Aprly-5 (Enzo Biosciences) were used as negative controls. Mouse specific, blocking antibody aprily-1-1 (Adipogen) was generally used as a positive control in experiments using mouse APRIL (HA-GCN4-mAPRIL).

[2] = target: T1, HA-GCN4 hAPRIL (amino acid residues …); assay: blocking ELISA; blocked: human APRIL binding to human TACI-Fc; design: concentration or dose not given beside the values
Description: as §1, §2

[3] = target: T1, HA-GCN4 hAPRIL (amino acid residues …); assay: blocking ELISA, 4-parameter fit; blocked: human APRIL binding to human BCMA-Fc
Description: as §1, §2

[4] = target: human BAFF (TNFSF13B, AB Biosciences) (human, UniProt Q9Y275 134-285, limits assumed); assay: indirect ELISA, cytokine coated
Description: (§3) Selected anti-APRIL antibodies were evaluated for potential cross-reactivity with other members of the TNFa superfamily (TNFSF) family of cytokines, including: human TNFα (TNFSF2; Adipogen), human […] (TNFSF4, Adipogen), human FasL (TNFSF6, Adipogen), human TRAIL (TNFSF10, Adipogen), human RANKL (TNFSF11; Adipogen), human Tweak (TNFSF12; Abcam), human and mouse BAFF (TNFSF13B, AB Biosciences and Adipogen, respectively), and human LIGHT (TNFSF14, Adipogen). These cytokines share variable degree of sequence as well as higher order structural homologies. Among them, BAFF appears to be the most closely related to APRIL, with 29% identity and 53% amino acid sequence similarity.
(§4) Binding was evaluated by an indirect ELISA protocol using similar methods described for evaluation of APRIL binding; cytokines were immobilized to ELISA plate at 50 ng per well and then exposed to a solution of each of the test antibodies at a fixed concentration of 10 μg/ml Anti-human or anti-mouse Ig-HRP polyclonal antibody conjugates (Jackson Laboratories) were used for detection of antibody binding. The results presented in FIG. 36 indicated eleven of the twelve antibodies tested in this assay to specifically bind APRIL with no measurable cross-reactivity with the other TNFSF members substantially above assay background.

[5] = target: human TNFα (TNFSF2; Adipogen) (human, UniProt P01375 85-233, limits assumed); assay: indirect ELISA, cytokine coated
Description: as §3, §4

[6] = target: T2, human FasL (TNFSF6, Adipogen); assay: indirect ELISA, cytokine coated
Description: as §3, §4

[7] = target: human LIGHT (TNFSF14, Adipogen) (human, UniProt O43557 89-240, limits assumed); assay: indirect ELISA, cytokine coated
Description: as §3, §4

[8] = target: mouse BAFF (TNFSF13B, Adipogen) (mouse, UniProt Q9WU72 127-309, limits assumed); assay: indirect ELISA, cytokine coated
Description: as §3, §4

[9] = target: human TRAIL (TNFSF10, Adipogen) (human, UniProt P50591 95-281, limits assumed); assay: indirect ELISA, cytokine coated
Description: as §3, §4

[10] = target: T3, human RANKL (TNFSF11; Adipogen); assay: indirect ELISA, cytokine coated
Description: as §3, §4

Sequence of mouse BAFF (TNFSF13B, Adipogen) (Q9WU72 127-309 limits assumed): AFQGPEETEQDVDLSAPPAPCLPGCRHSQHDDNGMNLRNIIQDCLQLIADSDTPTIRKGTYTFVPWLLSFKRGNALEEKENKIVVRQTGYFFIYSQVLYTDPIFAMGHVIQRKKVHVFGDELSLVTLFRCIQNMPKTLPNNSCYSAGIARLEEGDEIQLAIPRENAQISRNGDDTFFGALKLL
Sequence of human TNFα (TNFSF2; Adipogen) (P01375 85-233 limits assumed): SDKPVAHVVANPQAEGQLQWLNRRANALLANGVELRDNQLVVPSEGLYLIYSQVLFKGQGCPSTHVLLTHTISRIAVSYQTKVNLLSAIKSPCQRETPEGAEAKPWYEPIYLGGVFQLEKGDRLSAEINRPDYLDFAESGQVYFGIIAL
Sequence of human TRAIL (TNFSF10, Adipogen) (P50591 95-281 limits assumed): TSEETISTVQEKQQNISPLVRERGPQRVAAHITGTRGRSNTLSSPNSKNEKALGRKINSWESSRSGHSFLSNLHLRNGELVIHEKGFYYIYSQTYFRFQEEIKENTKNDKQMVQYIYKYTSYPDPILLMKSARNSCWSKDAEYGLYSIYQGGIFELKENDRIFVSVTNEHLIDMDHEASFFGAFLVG
Sequence of human LIGHT (TNFSF14, Adipogen) (O43557 89-240 limits assumed): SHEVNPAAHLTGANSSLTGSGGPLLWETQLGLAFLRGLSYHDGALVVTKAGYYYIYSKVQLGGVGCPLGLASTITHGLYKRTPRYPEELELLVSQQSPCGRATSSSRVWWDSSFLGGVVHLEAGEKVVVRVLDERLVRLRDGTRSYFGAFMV

| IC50 [1] | % Inhibition [2] | IC50 [3] | binding result [4] | binding result [5] | binding result [6] | binding result [7] | binding result [8] | binding result [9] | binding result [10] | Binder |
| --- | --- | --- | --- | --- | --- | --- | --- | --- | --- | --- |
| 0.98 nM | 40% | 0.31 nM | no binding (tested: 10 µg/ml (p-1128)) | no binding (tested: 10 µg/ml (p-1128)) | no binding (tested: 10 µg/ml (p-1128)) | no binding (tested: 10 µg/ml (p-1128)) | no binding (tested: 10 µg/ml (p-1128)) | no binding (tested: 10 µg/ml (p-1128)) | no binding (tested: 10 µg/ml (p-1128)) | monoclonal antibody 2218 (antibody, mouse IgG2, V domains shown) VH: DVQLQESGPGLVKPSQSLSLTCSVTGYSITSGYYWNWIRQFPGNKLEWMGYISYDGYNNYNPSLKNRISITRDTSKNQFFLKLNSVTTEDTATYYCANYYDYEDWYFGVWGTGTTVTVSS VL: DIVLTQSPASLAMSLGKRATISCRASESVSIIGTNSIHWYQQKPGQPPKLLIYHASNLETGVPARFSGSGSRTDFTLTIDPVEEDDVAIYYCLQSRKIPYTFGGGTKLEIK |
| 0.9 nM | 95% | 0.56 nM | no binding (tested: 10 µg/ml (p-1128)) | no binding (tested: 10 µg/ml (p-1128)) | no binding (tested: 10 µg/ml (p-1128)) | no binding (tested: 10 µg/ml (p-1128)) | no binding (tested: 10 µg/ml (p-1128)) | no binding (tested: 10 µg/ml (p-1128)) | no binding (tested: 10 µg/ml (p-1128)) | 4237 (antibody, V domains shown, also called monoclonal antibody 4237) VH: QAHLKESGPGLVAPSQSLSITCTVSGFSLTDYDVHWVRQSPGKGLEWLGVIWNDGSTDYNTAFISRLTISKDNSKSQVFFKMNSLQADDTAIYYCARNWYGGYWFAYWGQGTLVTVSA VL: DIQMTQSPASLSASAGETVTITCRSSENIYSYLAWYQQKQGKSPQLLVYNANALAEGVPSRFSGSGSVTQFSLKINSLQPEDFGSYYCQHHYGTPFTFGSGTKLEIK |
| 2.9 nM | 89% | 0.48 nM | no binding (tested: 10 µg/ml (p-1128)) | no binding (tested: 10 µg/ml (p-1128)) | no binding (tested: 10 µg/ml (p-1128)) | no binding (tested: 10 µg/ml (p-1128)) | no binding (tested: 10 µg/ml (p-1128)) | no binding (tested: 10 µg/ml (p-1128)) | no binding (tested: 10 µg/ml (p-1128)) | monoclonal antibody 3530 (antibody, mouse IgG2, V domains shown) VH: QVQLQQSGAELVRPGASVKLSCKASGYTFTDHEMHWVRQTPVHGLEWIGVIDPDTGDTTYNQKFKGKATLTADKSSSTAYMDLRSLTSEDSAVFYCTRWTGGDYWGHGTTLTVSS VL: DAVMTQTPLSLSVTIGQPASISCKSSQSLLYSDGKTYLNWFQQRPGQSPKRLMYQVSKLDPGIPDRFSGSGSETDFTLKISRVEAEDLGVYYCLQGTYYPYTFGSGTKLEIK |
